In publication PMC10031210 (Protein Science : A Publication of the Protein Society, 2023):

B1: FkpA (full-length, dimeric form) (natural protein, E. coli, UniProt P45523 26-270, looked up)
chain: AEAAKPATAADSKAAFKNDDQKSAYALGASLGRYMENSLKEQEKLGIKLDKDQLIAGVQDAFADKSKLSDQEIEQTLQAFEARVKSSAQAKMEKDAADNEAKGKEYREKFAKEKGVKTSSTGLVYQVVEAGKGEAPKDSDTVVVNYKGTLIDGKEFDNSYTRGEPLSFRLDGVIPGWTEGLKNIKKGGKIKLVIPPELAYGKAGVPGIPPNSTLVFDVELLDVKPAPKADAKPEADAKAADSAKK
B2: unfolded outer membrane protein X (uOmpX) (natural protein, E. coli, UniProt P0A917 24-171, looked up)
chain: ATSTVTGGYAQSDAQGQMNKMGGFNLKYRYEEDNSPLGVIGSFTYTEKSRTASSGDYNKNQYYGITAGPAYRINDWASIYGVVGVGYGKFQTTEYPTYKHDTSDYGFSYGAGLQFNPMENVALDFSYEQSRIRSVDVGTWIAGVGYRF

What was measured:
[1] = biological target: B2; experiment: cell-based or functional assay
[2] = biological target: unfolded β-barrel assembly machine A (uBamA) (UniProt P0A940 21-810); experiment: AUC
[3] = biological target: B1; experiment: AUC

decrease of the OmpX folding rate into diC11PC LUVs with FkpA [1] [fold]	binding result [2]	binding result [3]	Binder
3	binds	–	B1
–	–	binds	B2
